# Laboratory results: paper PMC3531251, “Yeast importin-β is required for nuclear import of the Mig2 repressor” (BMC Cell Biology, 2012)
# B1: GST-Mig2nls1 fusion protein (natural protein)
# chain: not shown
# notes: Held on glutathione-Sepharose beads in the pull-downs; also called Mig2nls1-GST; MIG2K32AK33AR37A; source: E. coli BL21(DE3) pLysS, purified on glutathione-Sepharose
# B2: GST-Mig2 fusion protein (natural protein)
# chain: not shown
# notes: Mig2 of Saccharomyces cerevisiae, PCR fragment cloned in the SalI site of pGEX-4T-1; also called Mig2-GST; pGEX/MIG2; source: E. coli BL21(DE3) pLysS, purified on glutathione-Sepharose
# Target: T1, Kap60 (importin-α), purified from E. coli (S. cerevisiae, UniProt Q02821 1-542)
# T1 construct: also called purified Kap60; GST-Kap60 (before thrombin); source: E. coli BL21(DE3) pLysS, purified on glutathione-Sepharose, released with thrombin
# T1 sequence (looked up): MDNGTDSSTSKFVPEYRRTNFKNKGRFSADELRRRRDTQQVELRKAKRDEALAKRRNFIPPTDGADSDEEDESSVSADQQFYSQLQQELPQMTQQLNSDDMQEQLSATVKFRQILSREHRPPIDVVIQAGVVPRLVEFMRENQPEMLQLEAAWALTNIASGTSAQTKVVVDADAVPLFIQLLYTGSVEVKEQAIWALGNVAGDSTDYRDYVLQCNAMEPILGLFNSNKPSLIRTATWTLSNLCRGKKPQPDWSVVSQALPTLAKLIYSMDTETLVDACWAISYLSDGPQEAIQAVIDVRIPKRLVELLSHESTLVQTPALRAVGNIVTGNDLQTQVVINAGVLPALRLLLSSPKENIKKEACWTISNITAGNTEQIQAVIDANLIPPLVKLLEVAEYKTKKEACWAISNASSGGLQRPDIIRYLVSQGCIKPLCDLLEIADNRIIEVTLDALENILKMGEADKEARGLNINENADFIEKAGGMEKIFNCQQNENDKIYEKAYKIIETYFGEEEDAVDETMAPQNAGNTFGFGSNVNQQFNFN
# Assay: pull-down; GST fusion on glutathione-Sepharose incubated with purified Kap60 and/or Kap95 (thrombin-released), no Gsp1; 1 h at 4°C in PBS; blot with anti-Kap60 or anti-Kap95
# Details: both partners purified
row,Binder,binding result
1,B1,binds
2,B2,binds
